Each block holds one binder with its values, some of them ahead of it.
Tests used:
[1] = target: T1, Recombinant extracellular domain of human RON (rhRON) (human, UniProt Q04912)
[2] = target: full-length human RON expressed on HEK293T cells (HEK293T-hRON) (Homo sapiens, UniProt Q04912)
[3] = target: T2, RON endogenously expressed on T-47D human breast cancer cells (Homo sapiens (T-47D cell line), UniProt Q04912); assay: cell-based or functional assay
[4] = target: T1, Recombinant extracellular domain of …; assay: SPR; ProteOn; rhRON immobilised on GLC chip; 1/10 diluted crude periplasmic extracts injected 2 min at 45 µl/min; Langmuir model, off-rate only; conditions: one partner purified
[5] = target: T2, RON endogenously expressed on T-47D …; assay: flow cytometry on cells; dilution series of purified nanobodies starting at 500 nM on T-47D cells endogenously expressing RON; anti-FLAG then anti-mouse APC; conditions: one partner purified

full-length human RON expressed on HEK293T cells (HEK293T-hRON), sequence (Q04912 25-1400): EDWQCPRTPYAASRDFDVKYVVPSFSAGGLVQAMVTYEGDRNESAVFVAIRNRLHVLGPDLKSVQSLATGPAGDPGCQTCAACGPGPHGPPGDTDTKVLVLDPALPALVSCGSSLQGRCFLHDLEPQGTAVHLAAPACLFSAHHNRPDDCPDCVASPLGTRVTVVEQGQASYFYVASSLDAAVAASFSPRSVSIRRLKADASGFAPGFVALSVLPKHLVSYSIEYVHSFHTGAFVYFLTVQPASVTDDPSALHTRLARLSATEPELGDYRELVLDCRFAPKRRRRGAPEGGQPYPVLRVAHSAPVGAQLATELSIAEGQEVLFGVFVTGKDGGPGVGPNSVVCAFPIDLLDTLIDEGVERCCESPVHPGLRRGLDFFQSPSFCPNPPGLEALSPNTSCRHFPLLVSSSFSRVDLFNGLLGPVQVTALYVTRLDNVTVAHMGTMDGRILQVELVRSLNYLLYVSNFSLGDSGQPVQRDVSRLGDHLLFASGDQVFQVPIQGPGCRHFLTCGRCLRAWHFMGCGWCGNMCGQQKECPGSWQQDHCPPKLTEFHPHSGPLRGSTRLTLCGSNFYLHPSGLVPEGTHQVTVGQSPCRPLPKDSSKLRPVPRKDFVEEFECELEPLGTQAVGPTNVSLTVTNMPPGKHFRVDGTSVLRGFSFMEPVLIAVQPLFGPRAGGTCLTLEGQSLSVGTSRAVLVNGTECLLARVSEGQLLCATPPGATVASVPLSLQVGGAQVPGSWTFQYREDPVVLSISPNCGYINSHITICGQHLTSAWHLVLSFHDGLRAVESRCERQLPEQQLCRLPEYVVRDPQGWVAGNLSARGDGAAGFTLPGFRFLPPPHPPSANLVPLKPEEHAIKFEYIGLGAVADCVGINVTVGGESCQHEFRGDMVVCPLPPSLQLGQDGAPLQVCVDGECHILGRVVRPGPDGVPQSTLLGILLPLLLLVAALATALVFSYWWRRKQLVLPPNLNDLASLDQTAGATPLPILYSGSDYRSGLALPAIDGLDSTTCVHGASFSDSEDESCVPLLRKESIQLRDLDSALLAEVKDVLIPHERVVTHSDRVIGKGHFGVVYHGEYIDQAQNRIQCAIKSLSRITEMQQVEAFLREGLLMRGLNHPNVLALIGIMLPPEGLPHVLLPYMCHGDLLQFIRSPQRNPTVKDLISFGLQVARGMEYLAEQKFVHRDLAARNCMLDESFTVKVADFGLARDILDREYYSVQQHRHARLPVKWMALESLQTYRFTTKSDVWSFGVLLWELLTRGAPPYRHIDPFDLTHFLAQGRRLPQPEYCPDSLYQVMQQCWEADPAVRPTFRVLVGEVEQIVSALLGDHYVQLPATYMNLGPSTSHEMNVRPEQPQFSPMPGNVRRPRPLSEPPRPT
T2 sequence (Q04912 25-1400): as above
T1 sequence (Q04912 25-957): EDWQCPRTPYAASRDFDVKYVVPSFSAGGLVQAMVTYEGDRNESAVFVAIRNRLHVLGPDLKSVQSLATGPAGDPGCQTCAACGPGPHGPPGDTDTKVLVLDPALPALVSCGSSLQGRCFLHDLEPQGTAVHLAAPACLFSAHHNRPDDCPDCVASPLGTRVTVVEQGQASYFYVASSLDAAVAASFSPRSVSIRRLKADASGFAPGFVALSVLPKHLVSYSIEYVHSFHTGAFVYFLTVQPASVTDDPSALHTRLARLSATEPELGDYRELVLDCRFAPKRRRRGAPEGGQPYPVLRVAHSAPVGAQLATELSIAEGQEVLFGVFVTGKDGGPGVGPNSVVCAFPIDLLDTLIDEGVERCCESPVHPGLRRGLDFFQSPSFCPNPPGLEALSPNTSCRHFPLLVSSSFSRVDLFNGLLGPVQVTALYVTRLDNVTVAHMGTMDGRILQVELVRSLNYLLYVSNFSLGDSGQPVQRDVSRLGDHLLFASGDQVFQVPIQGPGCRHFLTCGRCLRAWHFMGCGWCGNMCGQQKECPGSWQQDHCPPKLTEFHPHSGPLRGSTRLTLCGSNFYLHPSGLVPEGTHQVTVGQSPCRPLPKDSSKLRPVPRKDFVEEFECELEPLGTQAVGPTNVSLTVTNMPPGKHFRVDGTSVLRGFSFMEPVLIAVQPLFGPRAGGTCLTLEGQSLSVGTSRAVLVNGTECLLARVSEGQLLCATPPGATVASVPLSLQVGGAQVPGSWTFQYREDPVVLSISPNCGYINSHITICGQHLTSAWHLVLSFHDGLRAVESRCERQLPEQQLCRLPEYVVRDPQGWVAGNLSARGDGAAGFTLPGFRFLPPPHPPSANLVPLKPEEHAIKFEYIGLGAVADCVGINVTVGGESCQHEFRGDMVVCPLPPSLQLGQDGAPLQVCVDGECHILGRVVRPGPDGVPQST

B1: KY704056 (VHH)
VHH: EVQLVESGGGLVQAGGSLRLSCAASGRYVMGWFRQAPGKEREFVAAITRSGATTNYADSVKGRFTISRDSAKITVYLQMDSLKPEDTAVYYCAASGRYYTAAVEGANYDYWGQGTLVTVSS
- binding result [1]: binds
- binding result [2]: binds

B3: KY704061 (VHH)
VHH: EVQLVESGGGLVQAGGSLRLSCAASGRTFSNDAMGWFRQAPGKERAFVGVINWNGVTTRYTDSVEGRFTISRDNAKNTVYLQMNSLKPEDTAVYFCAAGGGPVAVSSGRSAYWGQGTLVTVSS
- binding result [1]: binds
- binding result [2]: binds

B4: KY704062 (VHH)
VHH: EVQLVESGGGLVQAGGSLRLSCAASGLAFSSYAAGWFRQAPGKEREFLAVISRGGGTTYYANFVKGRFSISRDNAENTVYLQMNSLKPEDTAVYYCGADTYFGRLVSDPITSDYWGQGTLVTVSS
- binding result [1]: binds
- binding result [2]: binds

B6: nanobody 2B09 (VHH)
VHH: EVQLVESGGGLVQPGGSLRLSCAASGFSLDNYGIGWFRQAPGKEREGVSYISSTSLTRYYAASVKGRFTISRDNSKNTVYLQMNSLNPEDTAVYYCASTDRWPGIEWYRGEYDNWGQGTQVTVSS
notes: From a llama immunised with rhRON; found by conventional screening and by NGS; source: E. coli, crude periplasmic extract; E. coli, purified; not shown: FLAG3, C-terminal, kept
- IC50 (M) inhibition of ERK phosphorylation induced by 1 nM MSP through RON on T-47D cells; purified nanobody, HTRF phospho-ERK [3]: 9.6e-08 M
- maximum inhibition (efficacy) of MSP-induced ERK phosphorylation in T-47D cells [3]: 96%
- koff [4]: 0.0018 s⁻¹
- EC50 [5]: 1.3 nM

B9: KY704053 (VHH)
VHH: EVQLVESGGGLVQAGDSLRLSCAASGRTFSIYSMGWFRQATGKEREFVAAIRWSGTRTYYADSVKGRFTISGDIAKNTVYLQMNNLKPEDTAVYSCAAGGSRGYVAAPDRWDYWGQGTLVTVSS
- binding result [1]: binds
- binding result [2]: binds

B11: KY704048 (VHH)
VHH: EVQLVESGGGLVQAGGSLRLSCAASGDTFSTYGMGWFRQAPGKEREIVARITWNRRTYYADSVKGRFTISRDNAKNAAYLEMNSLKPEDTAVYMCAAVRGDNLFHTRPRDYDYWGQGTLVTVSS
- binding result [1]: binds
- binding result [2]: binds

B12: KY704049 (VHH)
VHH: EVQLVESGGGVVQTGGSLRLSCAASGRYAMGWFRQVSGKEREFVAFISASGGSTYYADSVKGRFTISRDNAKTTLAYLQMISLKPEDTAVYYCATSGGIFRGLYYDTRNYNYWGQGTLVTVSS
- binding result [1]: binds
- binding result [2]: binds

B14: KY704043 (VHH)
VHH: EVQLVESGGGLVQAGGSLRLSCVASGRAYRNYVMGWFRQGPGKEREFVATIRPDDGSILSSNSVRGRITISSDNAKNTVYLQMSTLAPEDTAIYYCAYGTTPSMLARKYDYWGQGTLVTVSS
- binding result [1]: binds
- binding result [2]: binds

B15: KY704058 (VHH)
VHH: EVQLVESGGGLVQAGDSLRLSCAASGGTLNGYAMAWFRQAPGKERDVVATINWSGSWKYYADSVKGRFTISRDNAKGTVYLQMNSLKPEDTAVYRCAARRGGGNYYTRAVDFDYWGQGTLVTVSS
- binding result [1]: binds
- binding result [2]: binds

B18: KY704060 (VHH)
VHH: EVQLVESGGGLVQSGDSLRLSCAASGRSFSRSTMGWFRQAPEKEREFVAVISWAGTTTYYHDSVKGRFTISRDNAKNTVYLQMNSLKPEDTAVYYCAGGRDARILRNARDYDYWGQGTLVTVSS
- binding result [1]: binds
- binding result [2]: binds

B19: KY704044 (VHH)
VHH: EVQLVESGGGLVQAGGSLRLSCAASGRTSSIYRMGWFRQAPGKERDIVASIHWSGGRWFYADFVKGRFTISRDNAENTVYLQMSSLKPEDTAVYYCAARTPGTLTYDYWGQGTLVTVSS
- binding result [1]: binds
- binding result [2]: binds

B20: KY704055 (VHH)
VHH: EVQLVESGGGVVQAGGSLRLSCAASGRYGVGWFRQPPGKEREFVSAVSKSGGSTYYEDSVKGRFTISRDGAKNTVYLQMNSLKPEDTAVYYCAADGGGYSAYYYYTHQTEYEYWGQGTLVTVSS
- binding result [1]: binds
- binding result [2]: binds

Now from value to binder:

- binding result [1]: binds
- binding result [2]: binds
B2: KY704045 (VHH)
VHH: EVQLVESGGGLVQAGGSLRLSCAASGRTFSSYIMAWFRQAPGKERDVVATVSWGGETTYYADSVKGRFTISRDNAKNTVYLQMNSLKPEDTAVYYCAASHARGYWHTPFTVADVGSWGQGTLVTVSS

- binding result [1]: binds
- binding result [2]: binds
B5: KY704054 (VHH)
VHH: EVQLVESGGGLVQTGGSLRLSCAASGIYFRLYTMGWYRQAPGNQRELVALITSTRSTHYADSVKGRFTISRDNAKNTLYLQMNSLKPEDTAVYYCNAHNGQGDFWGQGTLVTVSS

- IC50 (M) inhibition of ERK phosphorylation induced by 1 nM MSP through RON on T-47D cells; purified nanobody, HTRF phospho-ERK [3]: 4.9e-09 M
- maximum inhibition (efficacy) of MSP-induced ERK phosphorylation in T-47D cells [3]: 100%
- koff [4]: 0.00029 s⁻¹
- EC50 [5]: 0.33 nM
B7: nanobody 5G04 (VHH)
VHH: EVQLVESGGALVQAGDSLRVSCVASGRTFSHYAMGWFRQAPGKQREFVAAISWDGDSTSYANSLKGRFTISRDNAKNTGYLYMNSLIPEDTAVYYCAAGPNFSTLARRYDYWGQGTLVTVSS
notes: as for B6

- IC50 (M) inhibition of ERK phosphorylation induced by 1 nM MSP through RON on T-47D cells; purified nanobody, HTRF phospho-ERK [3]: 1.8e-08 M
- maximum inhibition (efficacy) of MSP-induced ERK phosphorylation in T-47D cells [3]: 100%
- koff [4]: 0.005 s⁻¹
- EC50 [5]: 5 nM
B8: nanobody 2D07 (VHH)
VHH: EVQLVESGGGLVQPGGSLRLSCAASGFTFRAYNMNWLRQAPGKGLEWVSVISGGGGGTLYADSVKGRFTISRDNAKNTLYLQMNSLKPEDTAVYYCAGSDFFADYGRPRHEYRYWGQGTQVTVSS
notes: as for B6

- binding result [1]: binds
- binding result [2]: binds
B10: KY704047 (VHH)
VHH: EVQLVESGGGLVQAGGSLRLSCAASGIPFSRYHMGWFRQAPGKEREFVASVSWSGQNTYYADSVKGRFTISRDNAKNTGNLQMNSMKPEDTAVYYCAAGSRYYTDIIPNYYRYWGQGTLVTVSS

- binding result [1]: binds
- binding result [2]: binds
B13: KY704052 (VHH)
VHH: EVQLVESGGGLVQAGGSLRLSCAASGRTFSDYSMGWFRQAPGKEREPVAAVSRSGDDLMYENSLKGRFAISRDNAKNTVYLQMNSLKPEDTAVYYCAASTRFITALAANYDYWGQGTLVTVSS

- binding result [1]: binds
- binding result [2]: binds
B16: KY704050 (VHH)
VHH: EVQLVESGGGLVQAGGSLRLSCVASGRTLSSYTMGWFRQAPGKEREFLALITWSGGSTHYADSVKGRFTISRDNPKNTAYLQMGSLKPEDTAVYFCAARFRGVIATMARDYDYWGQGTLVTVSS

- binding result [1]: binds
- binding result [2]: binds
B17: KY704059 (VHH)
VHH: EVQLVESGGGLVQAGGSLRLSCTASGRSFSRYTMGWFRQAAGKERVFVAHIAWSGGTRYYADSVKGRFTISRDNAKNTVWLQMNSLKPEDTAVYYCAATSQTGLIVVNTRDYEIWGQGTLVTVSS
